{"source": "patent US20150167004", "about": "“OLIGONUCLEOTIDE INHIBITORS OF DNA […] AND THEIR USE IN TREATING DISEASES” (METHEOR THERAPEUTICS CORPORATION, published 2015)", "key": {"DNMT3B (DNMT3b1) [1]": {"target": "T1, DNMT3B (DNMT3b1) (Homo sapiens, UniProt Q9UBC3 Q9UBC3:1-853)", "test": "inhibition; tritiated methyl incorporation from SAM; IC50 not estimable in Table 4"}, "DNMT3A [2]": {"target": "T2, DNMT3A (Homo sapiens, UniProt Q9Y6K1 Q9Y6K1:1-912)", "T2 sequence (Q9Y6K1 whole entry, one chain of several)": "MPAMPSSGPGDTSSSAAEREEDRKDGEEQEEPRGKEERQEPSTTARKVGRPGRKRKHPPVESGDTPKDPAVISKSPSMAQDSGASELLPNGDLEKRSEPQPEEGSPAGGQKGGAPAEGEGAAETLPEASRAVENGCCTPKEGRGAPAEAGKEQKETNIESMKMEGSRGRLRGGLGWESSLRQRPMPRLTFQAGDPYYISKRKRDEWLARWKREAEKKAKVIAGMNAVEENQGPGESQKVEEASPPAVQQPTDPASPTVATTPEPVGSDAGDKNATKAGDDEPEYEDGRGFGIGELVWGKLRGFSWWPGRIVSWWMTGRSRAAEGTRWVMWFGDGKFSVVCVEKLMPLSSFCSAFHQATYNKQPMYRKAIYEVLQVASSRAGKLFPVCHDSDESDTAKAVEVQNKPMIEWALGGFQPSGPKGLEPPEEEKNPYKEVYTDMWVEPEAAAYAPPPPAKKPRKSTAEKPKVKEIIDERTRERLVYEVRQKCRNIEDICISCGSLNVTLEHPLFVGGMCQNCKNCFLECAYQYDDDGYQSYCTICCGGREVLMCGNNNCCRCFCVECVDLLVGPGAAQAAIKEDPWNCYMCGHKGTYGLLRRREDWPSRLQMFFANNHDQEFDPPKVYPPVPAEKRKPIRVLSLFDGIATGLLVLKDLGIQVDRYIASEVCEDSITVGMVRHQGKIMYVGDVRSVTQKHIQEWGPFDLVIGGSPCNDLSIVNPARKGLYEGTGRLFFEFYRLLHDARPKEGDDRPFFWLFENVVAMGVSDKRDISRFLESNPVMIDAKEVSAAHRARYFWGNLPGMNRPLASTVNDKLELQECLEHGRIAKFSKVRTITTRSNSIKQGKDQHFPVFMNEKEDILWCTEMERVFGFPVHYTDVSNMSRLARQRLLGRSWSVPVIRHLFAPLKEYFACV", "test": "inhibition; 25 nM DNMT3A, lambda DNA substrate, 1 uM SAM"}, "DNMT1 [3]": {"target": "T3, DNMT1 (Homo sapiens, UniProt P26358 P26358:1-1616)", "T3 sequence (P26358 whole entry, one chain of several)": "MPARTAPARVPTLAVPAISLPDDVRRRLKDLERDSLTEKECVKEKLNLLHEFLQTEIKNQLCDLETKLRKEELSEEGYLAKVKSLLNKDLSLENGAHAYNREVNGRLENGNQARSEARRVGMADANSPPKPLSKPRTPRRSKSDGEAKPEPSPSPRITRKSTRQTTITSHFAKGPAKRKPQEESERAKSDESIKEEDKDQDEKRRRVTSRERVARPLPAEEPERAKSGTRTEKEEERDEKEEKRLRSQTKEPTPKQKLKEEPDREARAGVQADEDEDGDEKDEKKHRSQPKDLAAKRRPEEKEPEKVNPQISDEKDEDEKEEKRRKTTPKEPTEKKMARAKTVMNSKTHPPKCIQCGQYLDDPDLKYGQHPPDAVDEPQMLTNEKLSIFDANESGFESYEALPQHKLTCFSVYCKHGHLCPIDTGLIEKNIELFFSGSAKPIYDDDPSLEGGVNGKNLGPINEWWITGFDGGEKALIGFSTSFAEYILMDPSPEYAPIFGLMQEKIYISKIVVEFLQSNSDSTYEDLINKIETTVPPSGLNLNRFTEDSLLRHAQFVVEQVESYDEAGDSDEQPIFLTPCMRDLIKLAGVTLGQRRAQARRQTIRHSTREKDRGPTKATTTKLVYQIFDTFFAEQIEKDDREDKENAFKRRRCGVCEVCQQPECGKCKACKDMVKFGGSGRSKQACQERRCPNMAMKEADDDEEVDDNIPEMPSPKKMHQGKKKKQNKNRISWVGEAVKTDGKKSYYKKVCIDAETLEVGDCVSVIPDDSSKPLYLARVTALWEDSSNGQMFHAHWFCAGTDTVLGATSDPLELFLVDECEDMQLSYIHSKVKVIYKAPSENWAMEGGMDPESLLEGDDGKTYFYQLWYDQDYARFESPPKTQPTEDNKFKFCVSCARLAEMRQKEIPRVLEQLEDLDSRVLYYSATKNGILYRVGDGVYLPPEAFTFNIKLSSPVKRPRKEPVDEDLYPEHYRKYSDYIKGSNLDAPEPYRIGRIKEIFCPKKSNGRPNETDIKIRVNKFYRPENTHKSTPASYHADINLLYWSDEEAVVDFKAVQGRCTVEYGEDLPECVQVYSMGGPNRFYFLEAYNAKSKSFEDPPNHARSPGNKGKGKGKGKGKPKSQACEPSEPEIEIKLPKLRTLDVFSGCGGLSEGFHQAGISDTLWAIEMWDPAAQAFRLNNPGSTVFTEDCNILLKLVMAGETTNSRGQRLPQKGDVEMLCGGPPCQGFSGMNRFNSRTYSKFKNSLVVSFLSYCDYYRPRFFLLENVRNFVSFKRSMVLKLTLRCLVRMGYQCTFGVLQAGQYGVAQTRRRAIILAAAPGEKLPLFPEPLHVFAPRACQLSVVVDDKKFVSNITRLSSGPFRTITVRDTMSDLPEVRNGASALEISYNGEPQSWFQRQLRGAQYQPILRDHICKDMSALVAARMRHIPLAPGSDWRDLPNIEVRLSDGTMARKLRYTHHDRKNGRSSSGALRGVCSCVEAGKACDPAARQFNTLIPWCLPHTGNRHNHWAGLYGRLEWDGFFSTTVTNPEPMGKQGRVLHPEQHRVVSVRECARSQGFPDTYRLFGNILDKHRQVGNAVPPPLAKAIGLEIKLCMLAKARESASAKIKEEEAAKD", "test": "inhibition; 25 nM DNMT1, poly(dI:dC) substrate, 1 uM SAM; table header cites SEQ 5 and 6 but oligo is MTC-424F/R; Table 5 gives 1.43 uM", "protocol": "(§1) DNA Methyltransferase 1 (DNMT1) was essentially assayed as described in Tollefsbol, T. O. and Hutchison III, C. A.: J. Biol. Chem. (1995), 270:18543-50 with the following modifications. Assay reaction was 5 μl volume, the DNA substrate was poly (dI:dC) 0.001 mg/ml and co-factor S-AdoMet at 1.0 μM; human DNMT1 was added at 25 nM. Reaction: S-adenosyl-L-[methyl-3H] methionine+DNA=S-adenosyl-L-homocysteine+DNA 5-[methyl-3H]-cytosine. S-AdoHCy was used as a positive control for the inhibition reaction."}, "DNMT3A [4]": {"target": "T2, DNMT3A", "test": "inhibition; tritiated methyl incorporation from SAM"}, "DNMT1 [5]": {"target": "T3, DNMT1", "test": "inhibition; tritiated methyl incorporation from SAM"}, "DNMT3B (DNMT3b1) [6]": {"target": "T1, DNMT3B (DNMT3b1)", "test": "inhibition; tritiated methyl incorporation from SAM"}, "DNMT1 [7]": {"target": "T3, DNMT1", "test": "inhibition; 25 nM DNMT1, poly(dI:dC) substrate, 1 uM SAM; Table 5 gives 5.52 uM", "details": "hairpin", "protocol": "as §1"}, "DNMT3B (DNMT3b1) [8]": {"target": "T1, DNMT3B (DNMT3b1)", "test": "inhibition; 25 nM DNMT3B, lambda DNA substrate, 1 uM SAM"}, "DNMT3A [9]": {"target": "T2, DNMT3A", "test": "inhibition; 25 nM DNMT3A, lambda DNA substrate, 1 uM SAM; Table 5 gives 1.5 uM"}, "DNMT1 [10]": {"target": "T3, DNMT1", "test": "inhibition; 25 nM DNMT1, poly(dI:dC) substrate, 1 uM SAM; Table 5 gives 348 nM", "details": "hairpin", "protocol": "as §1"}, "DNMT3B (DNMT3b1) [11]": {"target": "T1, DNMT3B (DNMT3b1)", "test": "inhibition; 25 nM DNMT3B, lambda DNA substrate, 1 uM SAM; Table 5 gives 18.9 uM"}}, "data": [{"binder": "MTC-424 (dsDNA, 5-aza-5,6-dihydro-dC at 8 of F strand; phosphodiester [F strand: 8]) DNA 1: GTACATGCGCTCCAGA DNA 2: TCTGGAGCGCATGTAC", "values": [{"measurement": "IC50", "setting": "DNMT3B (DNMT3b1) [1]", "value": "> 100000", "unit": "nM"}, {"measurement": "IC50", "setting": "DNMT3A [2]", "value": 10200, "unit": "nM"}, {"measurement": "IC50", "setting": "DNMT1 [3]", "value": 1940, "unit": "nM"}]}, {"binder": "MTC-429 (dsDNA, 5-aza-5,6-dihydro-dC at 8 of F strand; 5mC at 8 of R strand; phosphodiester [F strand: 8; R strand: 8]) DNA 1: GTACATGCGCTCCAGA DNA 2: TCTGGAGCGCATGTAC", "values": [{"measurement": "IC50", "setting": "DNMT3A [4]", "value": "> 50000", "unit": "nM"}, {"measurement": "IC50", "setting": "DNMT1 [5]", "value": 906, "unit": "nM"}]}, {"binder": "CCTATGCGATCGAGTTTTCTCGATCGCATAGG (structured_DNA, 5mC at 7 and 11; deoxy-zebularine at 21 and 25; PS backbone [7,11,21,25])", "note": "[MTC-433]", "values": [{"measurement": "IC50", "setting": "DNMT1 [5]; hairpin", "value": 4.22, "unit": "nM"}]}, {"binder": "CCTATGCGATCGAGTTTTCTCGATCGCATAGG (structured_DNA, 5mC at 7 and 11; 5-aza-5,6-dihydro-dC at 21 and 25; phosphodiester [7,11,21,25])", "note": "[MTC-425 (MTC-422m)]", "values": [{"measurement": "IC50", "setting": "DNMT3B (DNMT3b1) [6]", "value": "> 100000", "unit": "nM"}, {"measurement": "IC50", "setting": "DNMT3A [4]", "value": 6690, "unit": "nM"}, {"measurement": "IC50", "setting": "DNMT1 [5]; hairpin", "value": 504, "unit": "nM"}]}, {"binder": "CCTATGCGATCGAGTTTTCTCGATCGCATAGG (structured_DNA, 5-aza-5,6-dihydro-dC at 21 and 25; phosphodiester [21, 25 (5-aza-5,6-dihydro-dC)])", "note": "[MTC-422]", "values": [{"measurement": "IC50", "setting": "DNMT3A [2]", "value": 5700, "unit": "nM"}, {"measurement": "IC50", "setting": "DNMT1 [7]", "value": 1430, "unit": "nM"}, {"measurement": "IC50", "setting": "DNMT3B (DNMT3b1) [8]", "value": 21300, "unit": "nM"}]}, {"binder": "CCTATGCGATCGAGTTTTCTCGATCGCATAGG (structured_DNA, deoxy-zebularine at 21 and 25; PS backbone [21,25])", "note": "[MTC-432]", "values": [{"measurement": "IC50", "setting": "DNMT1 [5]; hairpin", "value": 8.3, "unit": "nM"}]}, {"binder": "CCTATGCGATCGAGTTTTCTCGATCGCATAGG (structured_DNA, 5mC at 7 and 11; zebularine (pyrimidin-2-one ribonucleoside) at 21 and 25; phosphodiester [7,11,21,25])", "note": "[MTC-427 (MTC-423m)]", "values": [{"measurement": "IC50", "setting": "DNMT3B (DNMT3b1) [6]", "value": 6200, "unit": "nM"}, {"measurement": "IC50", "setting": "DNMT3A [4]", "value": 1520, "unit": "nM"}, {"measurement": "IC50", "setting": "DNMT1 [5]; hairpin", "value": 295, "unit": "nM"}]}, {"binder": "CCTATGCGATCGAGTTTTCTCGATCGCATAGG (structured_DNA, zebularine (pyrimidin-2-one ribonucleoside) at 21 and 25; phosphodiester [21,25])", "note": "[MTC-423]", "values": [{"measurement": "IC50", "setting": "DNMT3A [9]", "value": 1600, "unit": "nM"}, {"measurement": "IC50", "setting": "DNMT1 [10]", "value": 363, "unit": "nM"}, {"measurement": "IC50", "setting": "DNMT3B (DNMT3b1) [11]", "value": 17500, "unit": "nM"}]}]}
